From US20120253017A1

Columns and labels:
[1] = target: mouse c-kit (recombinant, on BIAcore chip) (mouse) (UniProt P05532); experiment: BIAcore
[2] = target: mouse c-kit (recombinant, on BIAcore chip) (mouse) (UniProt P05532); experiment: BIAcore 2000, 1 uM dAb
[3] = target: mouse c-kit (recombinant, on BIAcore chip) (mouse) (UniProt P05532); experiment: BIAcore, c-kit on SA chip
[4] = target: mouse c-kit (recombinant, on BIAcore chip) (mouse) (UniProt P05532); experiment: BIAcore, dAb at 1000 and 500 nM
[5] = target: mouse c-kit (recombinant, on BIAcore chip) (mouse) (UniProt P05532); experiment: BIAcore, approximate kinetic constants
[6] = target: T1, Mouse cKIT ECD-Fc (mouse; human) (UniProt P05532); experiment: BIAcore
T1 sequence (looked up): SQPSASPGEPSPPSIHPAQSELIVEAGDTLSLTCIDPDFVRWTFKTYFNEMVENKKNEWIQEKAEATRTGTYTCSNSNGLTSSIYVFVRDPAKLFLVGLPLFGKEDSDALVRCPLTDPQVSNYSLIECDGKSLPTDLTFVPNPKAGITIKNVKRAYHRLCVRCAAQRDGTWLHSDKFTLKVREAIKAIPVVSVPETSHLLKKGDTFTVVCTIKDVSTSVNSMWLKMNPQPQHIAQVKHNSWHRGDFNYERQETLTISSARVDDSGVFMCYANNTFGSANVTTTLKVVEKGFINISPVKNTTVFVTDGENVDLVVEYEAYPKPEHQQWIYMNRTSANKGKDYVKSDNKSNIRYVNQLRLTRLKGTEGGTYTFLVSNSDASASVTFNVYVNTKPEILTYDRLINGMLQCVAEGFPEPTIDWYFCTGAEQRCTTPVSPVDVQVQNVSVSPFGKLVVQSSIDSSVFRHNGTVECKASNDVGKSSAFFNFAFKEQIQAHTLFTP

[7] = target: human c-kit (recombinant, on BIAcore chip or beads) (human) (UniProt P10721); experiment: BIAcore
human c-kit (recombinant, on BIAcore chip or beads) (human), sequence (P10721 26-524): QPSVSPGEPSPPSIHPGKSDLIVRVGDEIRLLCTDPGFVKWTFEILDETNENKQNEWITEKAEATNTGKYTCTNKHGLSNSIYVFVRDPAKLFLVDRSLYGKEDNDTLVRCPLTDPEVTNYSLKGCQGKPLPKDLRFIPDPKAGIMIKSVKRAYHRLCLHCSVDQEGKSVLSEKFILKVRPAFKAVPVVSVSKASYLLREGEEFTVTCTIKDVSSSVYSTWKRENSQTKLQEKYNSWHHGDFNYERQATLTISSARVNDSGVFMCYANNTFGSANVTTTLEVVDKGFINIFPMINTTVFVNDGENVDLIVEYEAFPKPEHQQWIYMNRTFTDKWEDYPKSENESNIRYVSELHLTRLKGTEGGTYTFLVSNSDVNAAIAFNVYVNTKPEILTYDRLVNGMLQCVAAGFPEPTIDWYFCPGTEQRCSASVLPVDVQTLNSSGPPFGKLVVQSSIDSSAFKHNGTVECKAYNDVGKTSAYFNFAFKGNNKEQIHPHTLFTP

B1: DOM28m-7 (protein)
VH: EVQLLESGGGLVQPGGSLRLSCAASGFTFSNYAMGWVRQAPGKGLEWVSSISSSGFATYYADSVKGRFTISRDNSKNTLYLQMNSLRAEDTAVYYCAKSESRTFKAFDYWGQGTLVTVSS
Kd [1]: 3 µM
Kd [2]: 4 µM

B2: DOM28m-73 (protein)
chain: EVQLLESGGGLVQPGGSLRLSCAASGFTFKHYSMNWVRQAPGKGLEWVSRISPSGVSTYYADSVKGRFTISRDNSKNTLYLQMNSLRAEDTAVYYCAKIMNSHKADEFDYWGQGTLVTVSS
Kd [1]: 9 µM
Kd [2]: 9 µM

B3: DOM28m-23 (protein)
VH: EVRLLESGGGLVQPGGSLRLSCAASGFTFRDYVMVWVRQAPGKGLEWVSAIAPTGGYTYYADSVKGRFTISRDNSKNTLYLQMNSLRAEDTAVYYCAKSLRTWLSEDLPFDYWGQGTLVTVSS
Kd [1]: 22 µM
Kd [2]: 22 µM
Kd [3]: 2.8 µM

B4: DOM28h-94 (protein)
VH: EVQLLESGGGLVQPGGSLRLSCAASGFTFFPYAMGWVRQAPGKGLEWVSFISGRGDTTYYADSVKGRFTISRDNSKNTLYLQMNSLRAEDTAVYYCAKTATSDLWNFDYWGQGTLVTVSS
Kd [3]: 1.5 µM
Kd [4]: 1.5 µM

B5: DOM28h-94-12 (protein)
VH: EVQPLESGGGLVQPGGSLRLSCAVSGFTVFPYAMGWVRQAPGKGLEWVSFISGRGDTTYYADSVKGRFTISRDNSKNTLYLQMNSLRAEDTAVYYCAKTATSDLWNFDYRGQGTLVTVSS
Kd [5]: 0.011 µM

B6: DOM28h-94-10 (protein)
VH: EVQLLESGGGLVQPGGSLRLSCAASGFTVFPYAMGWVRQAPGKGLEWVSFISGRGDTTYYADSVKGRFTISRDNSKNTLYLQMNSLRAEDTAVYYCAKTATSDLWNFDYRGQGTLVTVSS
Kd [5]: 0.112 µM

B7: DMS5052 (chimeric MLC mAb-cKIT dAb, DOM28m-007) (bispecific antibody, not shown: a dimerising Fc or GST)
heavy (part 1 of 2): QVQLQQSGAELASPGASVKLSCKASGYTFTTYWIHWVKQRPGQGLEWIGAIYPGDGDTRYTQNFKDKATLTADSSSSTAYMQLSSLASEDSAVFYCAREGTPPFTTATFAMAYWGQGTSVTVSS
heavy (part 2 of 2): STGEVQLLESGGGLVQPGGSLRLSCAASGFTFSNYAMGWVRQAPGKGLEWVSSISSSGFATYYADSVKGRFTISRDNSKNTLYLQMNSLRAEDTAVYYCAKSESRTFKAFDYWGQGTLVTVSS
light: DIVMSQSPSSLAVSAGDKVTMSCKSSQSLLYSRTRKNYLAWYQQKPGQSPKLLIYWASTRQSGVPDRFTGSGSGTDFTLTISSVQAEDLAVYYCKQSYNLFTFGSGTKLEIKR
Kd [6]: 0.036 µM
Kd [7]: 0.027 µM
Kd [1]: 0.08 µM

B8: DMS5060 (chimeric MLC mAb-cKIT dAb, DOM28h-094) (bispecific antibody, not shown: a dimerising Fc or GST)
heavy (part 1 of 2): QVQLQQSGAELASPGASVKLSCKASGYTFTTYWIHWVKQRPGQGLEWIGAIYPGDGDTRYTQNFKDKATLTADSSSSTAYMQLSSLASEDSAVFYCAREGTPPFTTATFAMAYWGQGTSVTVSS
heavy (part 2 of 2): STGEVQLLESGGGLVQPGGSLRLSCAASGFTFFPYAMGWVRQAPGKGLEWVSFISGRGDTTYYADSVKGRFTISRDNSKNTLYLQMNSLRAEDTAVYYCAKTATSDLWNFDYWGQGTLVTVSS
light: DIVMSQSPSSLAVSAGDKVTMSCKSSQSLLYSRTRKNYLAWYQQKPGQSPKLLIYWASTRQSGVPDRFTGSGSGTDFTLTISSVQAEDLAVYYCKQSYNLFTFGSGTKLEIKR
Kd [6]: 0.013 µM
Kd [7]: 0.036 µM
Kd [1]: 0.014 µM
